# Measurements: patent publication US20230227838A1, “ENHANCED CELL SURVIVAL AGAINST BIOTIC AND ABIOTIC STRESSES THROUGH SALICYLICK ACID-INDUCED NPR1 CONDENSATES” (priority 2020, published 2023)
# B1: NPR3: Arabidopsis NPR1 paralog AtNPR3 (AT5G45110) (protein, UniProt Q8L746 1-586, looked up)
# Regulatory protein NPR3: MATLTEPSSSLSFTSSHFSYGSIGSNHFSSSSASNPEVVSLTKLSSNLEQLLSNSDCDYSDAEIIVDGVPVGVHRCILAARSKFFQDLFKKEKKISKTEKPKYQLREMLPYGAVAHEAFLYFLSYIYTGRLKPFPLEVSTCVDPVCSHDCCRPAIDFVVQLMYASSVLQVPELVSSFQRRLCNFVEKTLVENVLPILMVAFNCKLTQLLDQCIERVARSDLYRFCIEKEVPPEVAEKIKQLRLISPQDEETSPKISEKLLERIGKILKALDSDDVELVKLLLTESDITLDQANGLHYSVVYSDPKVVAEILALDMGDVNYRNSRGYTVLHFAAMRREPSIIISLIDKGANASEFTSDGRSAVNILRRLTNPKDYHTKTAKGRESSKARLCIDILEREIRKNPMVLDTPMCSISMPEDLQMRLLYLEKRVGLAQLFFPTEAKVAMDIGNVEGTSEFTGLSPPSSGLTGNLSQVDLNETPHMQTQRLLTRMVALMKTVETGRRFFPYGSEVLDKYMAEYIDDDILDDFHFEKGSTHERRLKRMRYRELKDDVQKAYSKDKESKIARSCLSASSSPSSSSIRDDLHNTT
# B2: NPR6: development-associated NPR1 paralog AtNPR6 (AT3G57130) (protein, UniProt Q9M1I7 1-467, looked up)
# Regulatory protein NPR6: MSNTFEESLKSMSLDYLNLLINGQAFSDVTFSVEGRLVHAHRCILAARSLFFRKFFCESDPSQPGAEPANQTGSGARAAAVGGVIPVNSVGYEVFLLLLQFLYSGQVSIVPHKHEPRSNCGDRGCWHTHCTAAVDLSLDILAAARYFGVEQLALLTQKHLTSMVEKASIEDVMKVLIASRKQDMHQLWTTCSYLIAKSGLPQEILAKHLPIELVAKIEELRLKSSMPLRSLMPHHHDLTSTLDLEDQKIRRMRRALDSSDVELVKLMVMGEGLNLDESLALIYAVENCSREVVKALLELGAADVNYPAGPTGKTALHIAAEMVSPDMVAVLLDHHADPNVQTVDGITPLDILRTLTSDFLFKGAIPGLTHIEPNKLRLCLELVQSAALVISREEGNNNSNDNNTMIYPRMKDEHTSGSSLDSRLVYLNLGATNRDIGDDNSNQREGMNLHHHHHDPSTMYHHHHHHF
# B3: NPR2: Arabidopsis NPR1 paralog AtNPR2 (AT4G26120) (protein, UniProt Q9SZI3 1-600, looked up)
# Regulatory protein NPR2: MATTTTTTTARFSDSYEFSNTSGNSFFAAESSLDYPTEFLTPPEVSALKLLSNCLESVFDSPETFYSDAKLVLAGGREVSFHRCILSARIPVFKSALATVKEQKSSTTVKLQLKEIARDYEVGFDSVVAVLAYVYSGRVRSPPKGASACVDDDCCHVACRSKVDFMVEVLYLSFVFQIQELVTLYERQFLEIVDKVVVEDILVIFKLDTLCGTTYKKLLDRCIEIIVKSDIELVSLEKSLPQHIFKQIIDIREALCLEPPKLERHVKNIYKALDSDDVELVKMLLLEGHTNLDEAYALHFAIAHCAVKTAYDLLELELADVNLRNPRGYTVLHVAAMRKEPKLIISLLMKGANILDTTLDGRTALVIVKRLTKADDYKTSTEDGTPSLKGGLCIEVLEHEQKLEYLSPIEASLSLPVTPEELRMRLLYYENRVALARLLFPVETETVQGIAKLEETCEFTASSLEPDHHIGEKRTSLDLNMAPFQIHEKHLSRLRALCKTVELGKRYFKRCSLDHFMDTEDLNHLASVEEDTPEKRLQKKQRYMELQETLMKTFSEDKEECGKSSTPKPTSAVRSNRKLSHRRLKVDKRDFLKRPYGNGD
# Tested on: cytoplasmic condensates (SINCs)
# Test: Confocal imaging of localization and condensate (body) formation of GFP-fused NPR proteins and variants
# Type: cell-based, Nicotiana benthamiana
# Conditions: for SA-induced cytoplasmic body/condensate (SINC) formation: 5 mM SA for 2 hr
# Procedure: Plant transformation: For plant transformations, the Agrobacterium tumefaciens strain GV3101 was transformed with plant binary vectors carrying the indicated transgenes. For stable expression in Arabidopsis, a floral dipping method was used. For transient expression in N benthamiana, the Agrobacterium carrying the indicated construct was cultured overnight at 28° C. in Luria-Bertani (LB) broth medium supplemented with appropriate antibiotics: spectinomycin (100 μg/ml), kanamycin (50 μg/ml), gentamycin (50 μg/ml), and rifampicin (25 μg/ml). The obtained culture was re-inoculated at 1:10 into fresh growth media with antibiotics and grown for another 4 hr. Cells were then spun down at 1,600 g for 10 min, and inoculum was prepared by resuspending cells to OD600 nm=1 in double distilled water (DDW) containing 200 μM acetosyringone (Sigma). Unless otherwise stated, for co-IP, co-localization, and BiFC assays in N. benthamiana, the proteins were co-expressed at 1:1 mixture of the relevant Agrobacteria inoculums. In all BiFC assays, the pair of YN/YC fusions was co-expressed together with free mCherry to mark the cytoplasm and nucleus, mCherry-NLS to mark the nucleus only, or mCherry-fused test proteins for co-localization analysis. The inoculum was pressure infiltrated into N. benthamiana leaves at the abaxial side using 1 ml syringe without the needle. Due to low overall levels of NPR1-GFP in transgenic plants, a transient expression assay in Arabidopsis seedlings was used to monitor NPR1-GFP subcellular localization after SA treatment (FIG. 2B). To limit the imaging time in this transient assay (2 hours), a higher baseline SA concentration had to be used. Seeds of WT (Col-0) Arabidopsis were germinated on solid half-strength Murashige and Skoog (1/2 MS) medium and grown for 4 days. Agrobacterium carrying the indicated constructs was grown overnight in LB medium supplemented with appropriate antibiotics. The obtained culture was re-inoculated at 1:10 into virulence induction medium [50.78 mM MES, 0.5% Glucose, 1.734 mM NaH2PO4, 5% of 20X-AB mix (373.9 mM NH4C1, 24.34 mM MgSO4, 40.23 mM KCl, 1.36 mM CaCl2 and 0.18 mM FeSO4·7H2O), 200 μM acetosyringone] supplemented with 25 μg/ml rifampicin and grown for another 24 hr at 28° C. to OD600=0.8 (inoculum). Seedlings were vacuum-infiltrated with the inoculum, and at 48 hpi (hours post inoculation), treatments were performed by submerging the transformed seedlings in water or SA solution at indicated concentrations for 2 hr. Entire cotyledons were sampled for microscopy.
# Confocal laser scanning microscopy. Unless otherwise indicated, all imaging data and micrographs for single protein imaging, co-localizations, BiFC and time-lapse were obtained from the transient expression in N. benthamiana using the relevant Agrobacteria strains. All imaging was done with confocal laser scanning fluorescence microscopy using Zeiss 880 airyscan inverted confocal microscope with a 40×/1.2 water correction objective. GFP (eGFP) was excited with a 488 nm argon laser and emission was collected with a 505-530 nm band pass filter. YFP was excited with an argon laser using a 514 nm beam splitter, and emission was detected with a 520-555 nm band pass filter. mCherry was excited with a 561 nm diode laser, and emission was detected with a 575-615 nm band pass filter. When eGFP/YFP were imaged together with mCherry, a spectral GASP detector was used to collect emission from eGFP/YFP. Propidium iodide (PI) was excited with 488 nm argon laser and emission was detected with a 590-620 nm band pass filter. Time-lapse imaging was carried out on live leaf tissue samples from N. benthamiana plants transiently expressing the protein of interest. Image acquisition was done in 5 min intervals for the duration of 2 hr by scanning 30 consecutive focal planes along the Z-axis covering the entire thickness of an epidermal cell. Z-projection was done to each time frame stack before composing a final time-lapse file. […]
Molecule,SA-induced cytoplasmic body/condensate (SINC) formation,condensate formation in the absence of SA (constitutive) (no SA treatment / mock)
B1,fail to form cytoplasmic condensates,
B2,,constitutive bodies
B3,fail to form cytoplasmic condensates,
